According to paper PMC6995008 (Proceedings of the National Academy of Sciences of the …, 2020):

Columns and labels:
[1] = target: the molecule itself; assay: negative-stain electron microscopy
[2] = target: RABV SAD-B19 large polymerase protein (L), 6xHis-tagged (rabies virus (RABV) SAD-B19, UniProt P16289 1-2127); assay: negative-stain electron microscopy
RABV SAD-B19 large polymerase protein (L), 6xHis-tagged, sequence (P16289 whole entry): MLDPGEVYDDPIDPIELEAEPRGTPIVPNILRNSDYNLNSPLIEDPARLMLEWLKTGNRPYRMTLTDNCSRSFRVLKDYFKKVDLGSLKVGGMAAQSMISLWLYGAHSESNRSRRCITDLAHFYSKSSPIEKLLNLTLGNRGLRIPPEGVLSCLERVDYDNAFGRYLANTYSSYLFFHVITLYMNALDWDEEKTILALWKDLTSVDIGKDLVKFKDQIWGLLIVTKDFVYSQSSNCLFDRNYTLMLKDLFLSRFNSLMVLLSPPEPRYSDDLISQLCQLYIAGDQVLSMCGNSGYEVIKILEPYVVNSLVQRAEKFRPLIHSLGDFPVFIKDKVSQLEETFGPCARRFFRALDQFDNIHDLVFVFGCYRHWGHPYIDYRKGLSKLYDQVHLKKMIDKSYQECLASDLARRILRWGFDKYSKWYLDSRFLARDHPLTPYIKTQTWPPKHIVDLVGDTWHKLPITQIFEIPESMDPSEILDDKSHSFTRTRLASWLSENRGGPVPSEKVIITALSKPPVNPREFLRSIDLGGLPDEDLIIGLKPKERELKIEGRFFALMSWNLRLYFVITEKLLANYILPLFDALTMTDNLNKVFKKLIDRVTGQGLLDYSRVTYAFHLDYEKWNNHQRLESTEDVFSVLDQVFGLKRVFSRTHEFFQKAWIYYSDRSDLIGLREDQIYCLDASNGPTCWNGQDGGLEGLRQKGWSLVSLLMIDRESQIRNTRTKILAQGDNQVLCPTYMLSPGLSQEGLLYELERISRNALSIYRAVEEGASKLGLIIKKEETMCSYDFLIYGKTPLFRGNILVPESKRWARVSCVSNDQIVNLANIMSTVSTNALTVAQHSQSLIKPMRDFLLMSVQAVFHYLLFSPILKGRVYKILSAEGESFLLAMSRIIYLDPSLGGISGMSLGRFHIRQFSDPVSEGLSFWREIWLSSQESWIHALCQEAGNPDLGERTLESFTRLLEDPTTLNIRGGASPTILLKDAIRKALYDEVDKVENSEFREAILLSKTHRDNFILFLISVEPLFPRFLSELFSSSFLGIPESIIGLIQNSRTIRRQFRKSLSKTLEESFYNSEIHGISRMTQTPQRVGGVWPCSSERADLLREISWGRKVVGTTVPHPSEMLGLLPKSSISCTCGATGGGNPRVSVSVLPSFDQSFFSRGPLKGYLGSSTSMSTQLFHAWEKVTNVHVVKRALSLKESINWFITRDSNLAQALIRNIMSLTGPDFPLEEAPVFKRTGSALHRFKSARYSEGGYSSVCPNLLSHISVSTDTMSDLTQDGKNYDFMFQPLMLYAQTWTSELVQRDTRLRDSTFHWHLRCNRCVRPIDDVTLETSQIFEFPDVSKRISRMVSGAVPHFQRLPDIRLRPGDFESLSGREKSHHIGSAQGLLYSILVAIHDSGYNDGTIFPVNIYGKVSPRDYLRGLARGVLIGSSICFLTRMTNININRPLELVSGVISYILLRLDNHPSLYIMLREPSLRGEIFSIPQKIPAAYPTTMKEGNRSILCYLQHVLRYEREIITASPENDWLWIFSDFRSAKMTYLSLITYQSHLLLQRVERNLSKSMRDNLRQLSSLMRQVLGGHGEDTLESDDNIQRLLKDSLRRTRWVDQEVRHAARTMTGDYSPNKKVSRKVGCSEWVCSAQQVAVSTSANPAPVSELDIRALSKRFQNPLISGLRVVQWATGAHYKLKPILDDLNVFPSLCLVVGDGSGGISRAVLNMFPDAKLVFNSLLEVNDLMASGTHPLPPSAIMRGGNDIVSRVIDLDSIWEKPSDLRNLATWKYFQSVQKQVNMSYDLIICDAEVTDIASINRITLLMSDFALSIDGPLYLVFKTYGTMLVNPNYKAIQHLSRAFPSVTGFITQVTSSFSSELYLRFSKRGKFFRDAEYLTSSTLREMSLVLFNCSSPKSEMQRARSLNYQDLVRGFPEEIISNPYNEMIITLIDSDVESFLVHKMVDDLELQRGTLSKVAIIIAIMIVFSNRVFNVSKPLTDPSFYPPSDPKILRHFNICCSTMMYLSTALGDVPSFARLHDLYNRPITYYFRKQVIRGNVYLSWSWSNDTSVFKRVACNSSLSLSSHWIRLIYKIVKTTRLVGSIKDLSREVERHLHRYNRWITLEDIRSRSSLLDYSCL

B1: RABV SAD-B19 full-length P (PFL) with C-terminal StrepII tag (natural protein)
chain: MSKIFVNPSAIRAGLADLEMAEETVDLINRNIEDNQAHLQGEPIEVDNLPEDMGRLHLDDGKSPNHGEIAKVGEGKYREDFQMDEGEDPSFLFQSYLENVGVQIVRQMRSGERFLKIWSQTVEEIISYVAVNFPNPPGKSSEDKSTQTTGRELKKETTPTPSQRESQSSKARMAAQIASGPPALEWSATNEEDDLSVEAEIAHQIAESFSKKYKFPSRSSGILLYNFEQLKMNLDDIVKEAKNVPGVTRLAHDGSKLPLRCVLGWVALANSKKFQLLVESDKLSKIMQDDLNRYTSC
stoichiometry N [1]: 2 | binding result [2]: binds
